In patent publication US20180140690A1:

Tests used:
[1] = molecular target: XC-chemokine receptor 1 (XCR1) on mouse dermal dendritic cells (mouse) (UniProt Q9R0M1); test: cell-based or functional assay
[2] = molecular target: XC-chemokine receptor 1 (XCR1) on mouse dermal dendritic cells (mouse) (UniProt Q9R0M1); test: flow cytometry of ear skin cells 24 h after laser-assisted delivery of the vaccibody in vivo; staining depended on XCR1 expression (Xcr1-/- mice)

Sequence of UniProt Q9R0M1 (Q9R0M1 whole entry): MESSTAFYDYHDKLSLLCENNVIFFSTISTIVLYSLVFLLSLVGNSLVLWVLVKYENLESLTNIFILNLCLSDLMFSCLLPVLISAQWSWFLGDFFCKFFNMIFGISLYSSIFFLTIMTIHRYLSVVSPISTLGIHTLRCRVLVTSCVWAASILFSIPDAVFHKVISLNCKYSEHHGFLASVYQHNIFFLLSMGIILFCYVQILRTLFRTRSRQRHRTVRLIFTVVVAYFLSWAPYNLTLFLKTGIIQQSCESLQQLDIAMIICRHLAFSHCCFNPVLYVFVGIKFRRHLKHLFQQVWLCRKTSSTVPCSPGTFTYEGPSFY

OT-I CD8+ T cell proliferation in ear-draining lymph nodes (CTV dilution), against free OVA on a per molecule basis [1] [times] | OT-II CD4+ T cell proliferation in ear-draining lymph nodes (CTV dilution), against free OVA on a per molecule basis [1] [times] | percent of XCR1+ dermal DCs stained [2] [%] | Substance
15 | 3 |  | XCL1-OVA vaccibodies (from UniProt P47993 22-114; P01860 99-377; P01012 2-386)
 |  | 15 | XCL1-mCherry vaccibodies (from UniProt P47993 22-114; P01860 99-377)
